Reference: patent US8114968 (DYAX, dated 2012)

Experiments:
human MMP-12 [1] = molecular target: T1, human MMP-12 (human, UniProt P39900 106-470, limits assumed); test: cell-based or functional assay
human MMP-12 [2] = molecular target: T1, human MMP-12; test: Ki from inhibition of MMP-12 enzyme activity
human MMP-12 [3] = molecular target: T1, human MMP-12; test: cell-based or functional assay; remark: listed apart in the source
human MMP-12 [4] = molecular target: T1, human MMP-12; test: cell-based or functional assay; remark: listed apart in the source
murine MMP-12 [5] = molecular target: T2, murine MMP-12 (mouse, UniProt P34960 110-473, limits assumed); test: cell-based or functional assay
T2 sequence (P34960 110-473 limits assumed): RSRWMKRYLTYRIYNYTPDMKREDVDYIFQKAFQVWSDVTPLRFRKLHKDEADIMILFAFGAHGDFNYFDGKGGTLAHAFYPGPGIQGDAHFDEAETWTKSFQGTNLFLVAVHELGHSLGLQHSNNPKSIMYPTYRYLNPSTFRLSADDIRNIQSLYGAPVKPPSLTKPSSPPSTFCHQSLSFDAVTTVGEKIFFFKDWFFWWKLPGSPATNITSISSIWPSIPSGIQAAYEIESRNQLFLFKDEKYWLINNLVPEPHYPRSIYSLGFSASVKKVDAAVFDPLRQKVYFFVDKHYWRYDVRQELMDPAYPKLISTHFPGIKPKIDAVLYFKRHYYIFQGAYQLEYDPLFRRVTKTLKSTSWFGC

human MMP-12 [6] = molecular target: T1, human MMP-12; test: BIACORE, coated Fab
murine MMP-12 [7] = molecular target: T2, murine MMP-12; test: BIACORE, coated Fab

T1 sequence (P39900 106-470 limits assumed): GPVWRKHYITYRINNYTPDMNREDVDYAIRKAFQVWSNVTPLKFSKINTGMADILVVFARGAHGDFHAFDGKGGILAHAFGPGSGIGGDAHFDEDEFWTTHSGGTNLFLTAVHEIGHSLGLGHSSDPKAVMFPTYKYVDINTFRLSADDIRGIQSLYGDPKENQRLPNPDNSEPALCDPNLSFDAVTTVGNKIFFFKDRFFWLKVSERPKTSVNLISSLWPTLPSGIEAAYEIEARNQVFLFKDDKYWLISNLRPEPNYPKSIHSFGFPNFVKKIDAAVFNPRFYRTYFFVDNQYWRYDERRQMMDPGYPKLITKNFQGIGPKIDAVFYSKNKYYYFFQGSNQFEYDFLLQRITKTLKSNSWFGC

B1: 539A-M0013-D11 IgG (antibody, V domains shown)
VH: EVQLLESGGGLVQPGGSLRLSCAASGFTFSSYPMWWVRQAPGKGLEWVSGIVPSGGVTIYADSVKGRFTISRDNSKNTLYLQMNSLRAEDTAVYYCARVGWLASSDYYYYMDVWGKGTTVTVSS
VL: DIQMTQSPSSLSASVGDRITISCQASQDIDNYLNWYQQRSGKAPKLLIYDAYNLKAGVPSRFRGSRSGTDFFLTISSLQPEDFATYYCQQSYRAPLTFGGGTKVEIK
IC50 (nM), IgGs (human MMP-12 [1]): 13.3 nM | Ki (human MMP-12 [2]): 4.97 nM

B2: 539B-M0008-H09 Fab (Fab, V domains shown)
VH: EVQLLESGGGLVQPGGSLRLSCAASGFTFSDYNMHWVRQAPGKGLEWVSYIGPSGGYTHYADSVKGRFTISRDNSKNTLYLQMNSLRAEDTAVYYCAKDIRGAYSSGLFDYWGRGTLVTVSS
VL: DIQMTQSPSSLSASVGDRVTITCRANQSIYTYLNWYQQKPGKAPELLIYAASSLQSGVPSRFSGSGSGTDFTLTISSLQPEDFATYYCQQAGIFGQGTKLEIK
notes: N-glycosylation site in LC CDR1; also called M08H09
% of activity left with 100 nM in assay 04 Oct. 2006 (human MMP-12 [3]): 4.6% | IC50hu (human MMP-12 [4]): 12.1 nM | IC50 m (murine MMP-12 [5]): < 10 nM (not printed; inferred) | Kd (human MMP-12 [6]): 17.7 nM | koff (murine MMP-12 [7]): 0.004 s⁻¹

B3: 539B-M0071-D09 (Fab, V domains shown)
VH: EVQLLESGGGLVQPGGSLRLSCAASGFTFSPYWMHWVRQAPGKGLEWVSGISSSGGDTLYADSVKGRFTISRDNSKNTLYLQMNSLRAEDTAVYYCAKDIRGAYSSGLFDYWGRGTLVTVSS
VL: DIQMTQSPSSLSASVGDRVTITCRANQSIYTYLNWYQQKPGKAPELLIYAASSLQSGVPSRFSGSGSGTDFTLTISSLQPEDFATYYCQQAGIFGQGTKLEIK
IC50hu (human MMP-12 [4]): 2.4 nM | IC50 m (murine MMP-12 [5]): < 10 nM (not printed; inferred)

B4: 539B-M0063-G01 (Fab, V domains shown)
VH: EVQLLESGGGLVQPGGSLRLSCAASGFTFSWYWMVWVRQAPGKGLEWVSSIGPSGGDTYYADSVKGRFTISRDNSKNTLYLQMNSLRAEDTAVYYCAKDIRGAYSSGLFDYWGRGTLVTVSS
VL: DIQMTQSPSSLSASVGDRVTITCRANQSIYTYLNWYQQKPGKAPELLIYAASSLQSGVPSRFSGSGSGTDFTLTISSLQPEDFATYYCQQAGIFGQGTKLEIK
IC50hu (human MMP-12 [4]): 0.8 nM | IC50 m (murine MMP-12 [5]): > 10 nM (not printed; inferred) | Kd (human MMP-12 [6]): 1.58 nM | koff (murine MMP-12 [7]): 0.00654 s⁻¹

B5: 539B-M0069-C02 (Fab, V domains shown)
VH: EVQLLESGGGLVQPGGSLRLSCAASGFTFSYYNMHWVRQAPGKGLEWVSGIGPSGGGTLYADSVKGRFTISRDNSKNTLYLQMNSLRAEDTAVYYCAKDIRGAYSSGLFDYWGRGTLVTVSS
VL: DIQMTQSPSSLSASVGDRVTITCRANQSIYTYLNWYQQKPGKAPELLIYAASSLQSGVPSRFSGSGSGTDFTLTISSLQPEDFATYYCQQAGIFGQGTKLEIK
IC50hu (human MMP-12 [4]): 1.6 nM | IC50 m (murine MMP-12 [5]): ~10 nM (not printed; inferred) | Kd (human MMP-12 [6]): 6.97 nM

B6: 539B-M0071-H03 (Fab, V domains shown)
VH: EVQLLESGGGLVQPGGSLRLSCAASGFTFSPYWMHWVRQAPGKGLEWVSGIGPSGGPTFYADSIKGRFTISRDNSKNTLYLQMNSLRAEDTAVYYCAKDIRGAYSSGLFDYWGRGTLVTVSS
VL: DIQMTQSPSSLSASVGDRVTITCRANQSIYTYLNWYQQKPGKAPELLIYAASSLQSGVPSRFSGSGSGTDFTLTISSLQPEDFATYYCQQAGIFGQGTKLEIK
IC50hu (human MMP-12 [4]): 0.2 nM | IC50 m (murine MMP-12 [5]): < 10 nM (not printed; inferred) | Kd (human MMP-12 [6]): 1.03 nM

B7: 539B-M0063-C07 (Fab, V domains shown)
VH: EVQLLESGGGLVQPGGSLRLSCAASGFTFSPYWMSWVRQAPGKGLEWVSGISPSGGITFYADSVKGRFTISRDNSKNTLYLQMNSLRAEDTAVYYCAKDIRGAYSSGLFDYWGRGTLVTVSS
VL: DIQMTQSPSSLSASVGDRVTITCRANQSIYTYLNWYQQKPGKAPELLIYAASSLQSGVPSRFSGSGSGTDFTLTISSLQPEDFATYYCQQAGIFGQGTKLEIK
IC50hu (human MMP-12 [4]): 1 nM | IC50 m (murine MMP-12 [5]): < 10 nM (not printed; inferred) | Kd (human MMP-12 [6]): 2.29 nM | koff (murine MMP-12 [7]): 0.002 s⁻¹

B8: 539B-M0063-B11 (Fab, V domains shown)
VH: EVQLLESGGGLVQPGGSLRLSCAASGFTFSPYWMHWVRQAPGKGLEWVSGIGPSGGLTFYADSVKGRFTISRDNSKNTLYLQMNSLRAEDTAVYYCAKDIRGAYSSGLFDYWGRGTLVTVSS
VL: DIQMTQSPSSLSASVGDRVTITCRANQSIYTYLNWYQQKPGKAPELLIYAASSLQSGVPSRFSGSGSGTDFTLTISSLQPEDFATYYCQQAGIFGQGTKLEIK
IC50hu (human MMP-12 [4]): 0.7 nM | IC50 m (murine MMP-12 [5]): > 10 nM (not printed; inferred) | Kd (human MMP-12 [6]): 0.12 nM | koff (murine MMP-12 [7]): 0.00311 s⁻¹

B9: 539B-M0067-B06 (Fab, V domains shown)
VH: EVQLLESGGGLVQPGGSLRLSCAASGFTFSWYWMHWVRQAPGKGLEWVSGIVSSGGTTIYADSVKGRFTISRDNSKNTLYLQMNSLRAEDTAVYYCAKDIRGAYSSGLFDYWGRGTLVTVSS
VL: DIQMTQSPSSLSASVGDRVTITCRANQSIYTYLNWYQQKPGKAPELLIYAASSLQSGVPSRFSGSGSGTDFTLTISSLQPEDFATYYCQQAGIFGQGTKLEIK
IC50hu (human MMP-12 [4]): 0.7 nM | IC50 m (murine MMP-12 [5]): < 10 nM (not printed; inferred) | Kd (human MMP-12 [6]): 0.62 nM

B10: 539B-M0063-B01 (Fab, V domains shown)
VH: EVQLLESGGGLVQPGGSLRLSCAASGFTFSWYWMGWVRQAPGKGLEWVSSISPSGGYTFYADSVKGRFTISRDNSKNTLYLQMNSLRAEDTAVYYCAKDIRGAYSSGLFDYWGRGTLVTVSS
VL: DIQMTQSPSSLSASVGDRVTITCRANQSIYTYLNWYQQKPGKAPELLIYAASSLQSGVPSRFSGSGSGTDFTLTISSLQPEDFATYYCQQAGIFGQGTKLEIK
IC50hu (human MMP-12 [4]): 0.7 nM | IC50 m (murine MMP-12 [5]): > 10 nM (not printed; inferred) | Kd (human MMP-12 [6]): 0.171 nM | koff (murine MMP-12 [7]): 0.0025 s⁻¹

B11: 539B-M0065-H05 (Fab, V domains shown)
VH: EVQLLESGGGLVQPGGSLRLSCAASGFTFSYYGMGWVRQAPGKGLEWVSVISSSGGFTFYADSVKGRFTISRDNSKNTLYLQMNSLRAEDTAVYYCAKDIRGAYSSGLFDYWGRGTLVTVSS
VL: DIQMTQSPSSLSASVGDRVTITCRANQSIYTYLNWYQQKPGKAPELLIYAASSLQSGVPSRFSGSGSGTDFTLTISSLQPEDFATYYCQQAGIFGQGTKLEIK
IC50hu (human MMP-12 [4]): 0.7 nM | Kd (human MMP-12 [6]): 2.19 nM

B12: 539B-M0067-F06 (Fab, V domains shown)
VH: EVQLLESGGGLVQPGGSLRLSCAASGFTFSWYNMSWVRQAPGKGLEWVSRISPSGGDTGYADSVKGRFTISRDNSKNTLYLQMNSLRAEDTAVYYCAKDIRGAYSSGLFDYWGRGTLVTVSS
VL: DIQMTQSPSSLSASVGDRVTITCRANQSIYTYLNWYQQKPGKAPELLIYAASSLQSGVPSRFSGSGSGTDFTLTISSLQPEDFATYYCQQAGIFGQGTKLEIK
IC50hu (human MMP-12 [4]): 0.7 nM | IC50 m (murine MMP-12 [5]): < 10 nM (not printed; inferred) | Kd (human MMP-12 [6]): 0.203 nM | koff (murine MMP-12 [7]): 0.00025 s⁻¹

B13: 539B-M0071-A01 (Fab, V domains shown)
VH: EVQLLESGGGLVQPGGSLRLSCAASGFTFSEYWMTWVRQAPGKGLEWVSGISPSGGMTFYADSVKGRFTISRDNSKNTLYLQMNSLRAEDTAVYYCAKDIRGAYSSGLFDYWGRGTLVTVSS
VL: DIQMTQSPSSLSASVGDRVTITCRANQSIYTYLNWYQQKPGKAPELLIYAASSLQSGVPSRFSGSGSGTDFTLTISSLQPEDFATYYCQQAGIFGQGTKLEIK
IC50hu (human MMP-12 [4]): 0.3 nM | IC50 m (murine MMP-12 [5]): > 10 nM (not printed; inferred) | Kd (human MMP-12 [6]): 1.1 nM | koff (murine MMP-12 [7]): 0.01 s⁻¹

B14: 539A-M0013-G12 IgG (antibody, V domains shown)
VH: EVQLLESGGGLVQPGGSLRLSCAASGFTFSWYHMFWVRQAPGKGLEWVSGISSSGGYTHYADSVKGRFTISRDNSKNTLYLQMNSLRAEDTAVYYCATREGMLYDYVWGENYMDVWGKGTTVTVSS
VL: DIQMTQSPSSLSASVGDRVTITCQASQDTYNRLHWYQQKPGKAPKLLIYDAVNLNRGVPSRFRGSGSGTNYILIITNLQPEDTATYYCQHSDDLSLAFGGGTKVEIK
notes: also called M0013-G12 IgG a-huMMP12
IC50 (nM), IgGs (human MMP-12 [1]): 4.1 nM | Ki (human MMP-12 [2]): 2.05 nM

B15: 539B-M0015-F02 (Fab, V domains shown)
VH: EVQLLESGGGLVQPGGSLRLSCAASGFTFSRYGMTWVRQAPGKGLEWVSGISPSGGNTWYADSVKGRFTISRDNSKNTLYLQMNSLRAEDTAVYYCTSHDYGDHYGMDVWGQGTLVTVSS
VL: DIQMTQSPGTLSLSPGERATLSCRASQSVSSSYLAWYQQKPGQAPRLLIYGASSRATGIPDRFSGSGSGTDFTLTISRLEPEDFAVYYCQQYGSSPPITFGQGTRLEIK
% of activity left with 100 nM in assay 04 Oct. 2006 (human MMP-12 [3]): 84.1%

B16: 539A-M0016-A11 IgG (antibody, V domains shown)
VH: EVQLLESGGGLVQPGGSLRLSCAASGFTFSEYQMAWVRQAPGKGLEWVSSIYPSGGHTHYADSVKGRFTISRDNSKNTLYLQMNSLRAEDTAVYYCAKESYYDFWSGYYFDYWGQGTLVTVSS
VL: DIQMTQSPSSLSASVRDRVTITCRTSQNINTYLNWYYQAPGRAPKLLIFGVSSLHRGVSSRFSGSGDGTEFTLTISSLQPEDIGTYFCQQSYSSPWTFGQGTKVEIK
notes: also called M0016-A11 IgG a-huMMP12
IC50 (nM), IgGs (human MMP-12 [1]): 2.1 nM | Ki (human MMP-12 [2]): 0.7 nM

B17: 539B-M0007-H06 (Fab, V domains shown)
VH: EVQLLESGGGLVQPGGSLRLSCAASGFTFSHYWMHWVRQAPGKGLEWVSSISSSGGMTYYADSVKGRFTISRDNSKNTLYLQMNSLRAEDTAVYYCTTADYGYYYGMDVWGQGTTVTVSS
VL: DIQMTQSPGTLSLSSGERATLSCRASQSVSSNYLAWYQQKRGQAPRLLIYGASSRATGVPGRFSGSGSGTDFTLTISRLEPEDFAVYYCQQYGSSPRTFGQGTKLEIK
% of activity left with 100 nM in assay 04 Oct. 2006 (human MMP-12 [3]): 55.5%

B18: 539B-M0011-H11 Fab (Fab, V domains shown)
VH: EVQLLESGGGLVQPGGSLRLSCAASGFTFSWYNMWWVRQAPGKGLEWVSYIYPSGGNTGYADSVKGRFTISRDNSKNTLYLQMNSLRAEDTAVYYCAVFEYSSSGPQGYWGQGTLVTVSS
VL: QSALTQPPSVSVAPGQTARITCGGNNIGTKSVHWYQQKSGQAPVLVVYDNSDRPSGIPERFSGSNSGNTATLTISRVEAGDEADYYCQVWDNSIDHVVFGGGTKLTVL
% of activity left with 100 nM in assay 04 Oct. 2006 (human MMP-12 [3]): 12.2%

B19: 539A-M0013-H06 IgG (antibody, V domains shown)
VH: EVQLLESGGGLVQPGGSLRLSCAASGFTFSAYEMDWVRQAPGKGLEWVSGISSSGGPTYYADSVKGRFTISRDNSKNTLYLQMNSLRAEDTAVYYCARVGGWELLQDYYYYMDVWGKGTTVTVSS
VL: DIQMTQSPATLSLSPGERATLSCRASHSVDNLAWYQQQPGQAPRLLIYDVSYRATGIPARFSGSGSGTDFTLTISSLEPEDFAVYYCQQRNNWPLSLTFGGGTKVEIK
IC50 (nM), IgGs (human MMP-12 [1]): 5.3 nM | Ki (human MMP-12 [2]): 2.7 nM
